What all share (assay): SEC
For orientation: SEC sorts molecules by how far they enter the pores of the column.

In test [1] the target is S100A7(C47A)(C96A) homodimer (human) (UniProt P31151).
Test [2] has the same target. This is another data set of the same source.
Test [3] deals with Human S100A7 (psoriasin), oxidized, with Cys47–Cys96 disulfide bond (human) (UniProt P31151).
Test [4] has as its target Human S100A7 (psoriasin), reduced, with Cys47 and Cys96 as free thiols (human) (UniProt P31151).
Test [5] addresses S100A7(C47S)(C96S) homodimer (human) (UniProt P31151).
Test [6] shares this target. The source holds these as a separate data set.

Where two headings read alike, the source gives them in different places.

A word on the stoichiometry N: it is a count of units in the complex or per binding partner. As to “S100A7(C47A)(C96A) homodimer (from UniProt P31151 1-101) (natural protein)”, the stoichiometry N in test [1] and in test [2] was 2 in each case.

“Human S100A7 (psoriasin), oxidized, with Cys47–Cys96 disulfide bond (from UniProt P31151 1-101) (natural protein)”: in test [3], the stoichiometry N is 2.

Take “Human S100A7 (psoriasin), reduced, with Cys47 and Cys96 as free thiols (from UniProt P31151 1-101) (natural protein)”: in test [4], the stoichiometry N amounted to 2.

Take “S100A7(C47S)(C96S) homodimer (from UniProt P31151 1-101) (natural protein)”: the stoichiometry N in test [5] and in test [6] was 2 each time.

The values are drawn from PMC5748159.
